Experimental data taken from publication PMC8915372.

Target: HLA-A*03:01 (HLA class I molecule of HLA-A3+ NBS fibroblasts) (human | human (endogenous in NBS fibroblasts))
Test: affinity purification with mass spectrometry

amount of peptide detected by PRM in the HLA class I eluate (fmol/million cells): 3.67
Binder: ATFYVRTTINK [A3-RPL28^74-84(p76S>F) 11-mer peptide]
